Laboratory results as given in the supplement of paper PMC10126150.
± gives the standard deviation of the averaged measurements.

tested on: ATP; experiment: switch fluorescence ratio, 500 uM ATP over buffer (Cy3 cluster intensity, sum of 5 cycles each) (fold (ratio)); higher = stronger signal-on switching upon ATP binding; sequences stand for … in TCGTCGGCAGCGTCAGATGTGTATAAGAGACAGTTTTTTTTTTTTTTTTTTTTTTTTT…TC; settings: aptamer strand: ATP DNA aptamer (quencher-CACCTGGGGGAGTATTGCGGAGGAAGG + anchor), 100 nM annealed; ATP concentration: 500 uM
Summary of the method: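 Between each of five buffer/ATP cycles, the flow-cell was stripped with NaOH and re-annealed. Each cycle imaged Cy3-labelled switching-strand clusters, annealed to 100 nM quencher-labelled ATP aptamer on a modified Illumina MiSeq flow-cell, first in selection buffer and then after 15 min with 500 uM ATP at 22 °C. The fluorescence ratio is summed target-cycle over summed buffer-cycle Cy3 intensity per cluster, averaged per switch-domain sequence, with clusters outside 100-1000 RFU excluded.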
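Also: ATP exposure 15 min at 22 °C before imaging.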

Question: How did the switch fluorescence ratio turn out when TGACGGCTGG was run?
Answer: 1.026 ± 0.0044

Question: How did the switch fluorescence ratio turn out when TTTCAGTTCT was run?
Answer: 0.9773 ± 0.005

Question: Which switch fluorescence ratio does the source give for CCAAATGGTG here?
Answer: 1.16 ± 0.021

Question: For TGTTGTAGTC, which switch fluorescence ratio is on record?
Answer: 0.965 ± 0.017

Question: How did the switch fluorescence ratio turn out when TATTCATTGT was run?
Answer: 1.005 ± 0.0074

Question: With ACGATTCAAG as the sequence, how does the switch fluorescence ratio read?
Answer: 1.02 ± 0.061

Question: Which switch fluorescence ratio does the source give for GCCGGGCAGC here?
Answer: 0.98 ± 0.035

Question: Which switch fluorescence ratio does the source give for GGTGTTTTCG here?
Answer: 0.998 ± 0.03

Question: With GGGTGGCGTG as the sequence, how does the switch fluorescence ratio read?
Answer: 0.981 ± 0.082

Question: Which switch fluorescence ratio does the source give for GCAGGAGCGG here?
Answer: 0.998 ± 0.0094

Question: For TAAGGCGGTG, which switch fluorescence ratio is on record?
Answer: 1.04 ± 0.061

Question: Which switch fluorescence ratio does the source give for TTCTGTGGGG here?
Answer: 1.01 ± 0.017

Question: Which switch fluorescence ratio does the source give for ATGCTTTGGG here?
Answer: 1.036 ± 0.0061

Question: For CTCTTACTTT, which switch fluorescence ratio is on record?
Answer: 0.9862 ± 0.0084

Question: For GGGTTGTGAT, which switch fluorescence ratio is on record?
Answer: 0.984 ± 0.014

Question: How did the switch fluorescence ratio turn out when GAGACTGATG was run?
Answer: 1.05 ± 0.14

Question: CTTATAGGTG was tested. Which switch fluorescence ratio did it give?
Answer: 1.14 ± 0.059

Question: Which switch fluorescence ratio does the source give for GTCTAAGGAT here?
Answer: 0.995 ± 0.042

Question: GGTCCAGGAT was tested. Which switch fluorescence ratio did it give?
Answer: 1.018 ± 0.0068

Question: For ATAATCTATC, which switch fluorescence ratio is on record?
Answer: 0.995 ± 0.045

Question: With TATGATATGG as the sequence, how does the switch fluorescence ratio read?
Answer: 1.04 ± 0.025

Question: GGGCAAGAGT was tested. Which switch fluorescence ratio did it give?
Answer: 1.03 ± 0.024

Question: Which switch fluorescence ratio does the source give for CGTTGGGGGT here?
Answer: 0.978 ± 0.022

Question: CTTAACCTTC was tested. Which switch fluorescence ratio did it give?
Answer: 2.43 ± 0.31

Question: With ATAATTAAGA as the sequence, how does the switch fluorescence ratio read?
Answer: 0.992 ± 0.014

Question: Which switch fluorescence ratio does the source give for TAGTTATTTG here?
Answer: 0.993 ± 0.044

Question: With AGGGGTCCTT as the sequence, how does the switch fluorescence ratio read?
Answer: 0.997 ± 0.026

Question: With ATCTCTGGTT as the sequence, how does the switch fluorescence ratio read?
Answer: 0.966 ± 0.031

Question: Which switch fluorescence ratio does the source give for CGGCCGTATA here?
Answer: 0.998 ± 0.013

Question: With CGTGGGCGGT as the sequence, how does the switch fluorescence ratio read?
Answer: 0.9807 ± 0.0031

Question: Which switch fluorescence ratio does the source give for CGCCCCTGTA here?
Answer: 1.04 ± 0.035

Question: With GATGGGACAA as the sequence, how does the switch fluorescence ratio read?
Answer: 1.008 ± 0.0027

Question: With CTGATCAGCA as the sequence, how does the switch fluorescence ratio read?
Answer: 1.03 ± 0.04

Question: How did the switch fluorescence ratio turn out when TTGGCCCCCA was run?
Answer: 1.01 ± 0.017

Question: How did the switch fluorescence ratio turn out when TGCTTTATCT was run?
Answer: 1.012 ± 0.0023

Question: GATGGTGGTT was tested. Which switch fluorescence ratio did it give?
Answer: 1.02 ± 0.044

Question: How did the switch fluorescence ratio turn out when CATGGGGGTT was run?
Answer: 0.991 ± 0.025

Question: Which switch fluorescence ratio does the source give for AGTTATGCAC here?
Answer: 1.024 ± 0.0083

Question: TGGGGCTTTA was tested. Which switch fluorescence ratio did it give?
Answer: 1.06 ± 0.031

Question: With GGTTTGGTAG as the sequence, how does the switch fluorescence ratio read?
Answer: 0.9873 ± 0.0029

Question: CAAGTATCAT was tested. Which switch fluorescence ratio did it give?
Answer: 0.996 ± 0.076

Question: How did the switch fluorescence ratio turn out when GGTTGATTAT was run?
Answer: 0.9793 ± 0.0065

Question: With CCGTAGGGCT as the sequence, how does the switch fluorescence ratio read?
Answer: 1.05 ± 0.042

Question: Which switch fluorescence ratio does the source give for ATCGCCGGGG here?
Answer: 1.02 ± 0.045

Question: How did the switch fluorescence ratio turn out when AGGAGCGTCG was run?
Answer: 1.01 ± 0.013

Question: TCTTAGCCCT was tested. Which switch fluorescence ratio did it give?
Answer: 1.01 ± 0.025

Question: TTGGTTGGGG was tested. Which switch fluorescence ratio did it give?
Answer: 1 ± 0.03

Question: Which switch fluorescence ratio does the source give for TAGTTTTGTA here?
Answer: 0.971 ± 0.05

Question: How did the switch fluorescence ratio turn out when TATGGGGTAG was run?
Answer: 1 ± 0.013

Question: GCATAAGAAA was tested. Which switch fluorescence ratio did it give?
Answer: 1.03 ± 0.018

Question: For AAAATTTGTT, which switch fluorescence ratio is on record?
Answer: 1 ± 0.015

Question: With GATGGAGGTG as the sequence, how does the switch fluorescence ratio read?
Answer: 0.997 ± 0.011

Question: Which switch fluorescence ratio does the source give for ATCATGGGGT here?
Answer: 0.984 ± 0.041

Question: TACAGAGATT was tested. Which switch fluorescence ratio did it give?
Answer: 0.9778 ± 0.0084

Question: How did the switch fluorescence ratio turn out when ACTTTGGGAT was run?
Answer: 1.023 ± 0.0029

Question: Which switch fluorescence ratio does the source give for GGAAGATTCG here?
Answer: 0.984 ± 0.03

Question: With CGTATTATGG as the sequence, how does the switch fluorescence ratio read?
Answer: 0.998 ± 0.05

Question: For TTGAGGTTGA, which switch fluorescence ratio is on record?
Answer: 0.994 ± 0.029

Question: How did the switch fluorescence ratio turn out when TTTGTTGTGC was run?
Answer: 1.01 ± 0.016

Question: GGGGAGGGCC was tested. Which switch fluorescence ratio did it give?
Answer: 1.01 ± 0.032

Question: How did the switch fluorescence ratio turn out when CTTTAAAAAG was run?
Answer: 1 ± 0.059

Question: With AAGTTGGATA as the sequence, how does the switch fluorescence ratio read?
Answer: 0.993 ± 0.019

Question: Which switch fluorescence ratio does the source give for ACAAAATGTT here?
Answer: 1.02 ± 0.019

Question: For GTTATAGGGG, which switch fluorescence ratio is on record?
Answer: 0.99 ± 0.018

Question: How did the switch fluorescence ratio turn out when GTATGGGCGT was run?
Answer: 1.03 ± 0.018

Question: How did the switch fluorescence ratio turn out when AAGGTTTTTT was run?
Answer: 1.01 ± 0.02

Question: How did the switch fluorescence ratio turn out when TAATGACTGT was run?
Answer: 1.02 ± 0.045

Question: Which switch fluorescence ratio does the source give for CGTGGTGCGA here?
Answer: 1.02 ± 0.015

Question: ACCGCGTTTT was tested. Which switch fluorescence ratio did it give?
Answer: 1.03 ± 0.041

Question: Which switch fluorescence ratio does the source give for CGGTTTAATA here?
Answer: 1.03 ± 0.07

Question: Which switch fluorescence ratio does the source give for CGAAGGTTGC here?
Answer: 1.01 ± 0.04

Question: How did the switch fluorescence ratio turn out when CAGGAGTGAG was run?
Answer: 1.0068 ± 0.00044

Question: TTTGGTTTCA was tested. Which switch fluorescence ratio did it give?
Answer: 0.994 ± 0.013

Question: How did the switch fluorescence ratio turn out when TACAGTTGCG was run?
Answer: 1.02 ± 0.045

Question: TGGGTAAAAA was tested. Which switch fluorescence ratio did it give?
Answer: 0.995 ± 0.014

Question: How did the switch fluorescence ratio turn out when AGGAGGGTAA was run?
Answer: 1.024 ± 0.0031

Question: TTTCGTATTG was tested. Which switch fluorescence ratio did it give?
Answer: 0.991 ± 0.02

Question: Which switch fluorescence ratio does the source give for AGGCGGGTAT here?
Answer: 1.015 ± 0.0028

Question: For GGGAAAAACA, which switch fluorescence ratio is on record?
Answer: 1.02 ± 0.05

Question: Which switch fluorescence ratio does the source give for AATCGCTCTT here?
Answer: 1.007 ± 0.0062

Question: Which switch fluorescence ratio does the source give for TTACTAGGCA here?
Answer: 1.01 ± 0.012

Question: For TTAGTTTGAA, which switch fluorescence ratio is on record?
Answer: 0.968 ± 0.012

Question: ATTTGCAACT was tested. Which switch fluorescence ratio did it give?
Answer: 0.994 ± 0.026

Question: GTATAAGGAT was tested. Which switch fluorescence ratio did it give?
Answer: 1.03 ± 0.019

Question: Which switch fluorescence ratio does the source give for AAGCTTTGGA here?
Answer: 0.983 ± 0.012

Question: How did the switch fluorescence ratio turn out when ATAACGAATG was run?
Answer: 1.01 ± 0.024

Question: With TAGAAGGTTC as the sequence, how does the switch fluorescence ratio read?
Answer: 1.17 ± 0.29

Question: For GGGGGTAGGA, which switch fluorescence ratio is on record?
Answer: 1.02 ± 0.038

Question: How did the switch fluorescence ratio turn out when GTGAATAGGG was run?
Answer: 0.989 ± 0.028

Question: How did the switch fluorescence ratio turn out when TAGAATACTT was run?
Answer: 0.996 ± 0.016

Question: For ATAAATAAAA, which switch fluorescence ratio is on record?
Answer: 0.984 ± 0.036

Question: Which switch fluorescence ratio does the source give for TAGTTAATTT here?
Answer: 1.01 ± 0.034

Question: TGATGCTTTG was tested. Which switch fluorescence ratio did it give?
Answer: 0.998 ± 0.051

Question: How did the switch fluorescence ratio turn out when GAGGTGAGAC was run?
Answer: 1.06 ± 0.13

Question: With ACCCTTTTTG as the sequence, how does the switch fluorescence ratio read?
Answer: 0.986 ± 0.025

Question: Which switch fluorescence ratio does the source give for TTTGATGGGT here?
Answer: 0.993 ± 0.048

Question: How did the switch fluorescence ratio turn out when CGTTTAACTC was run?
Answer: 1.05 ± 0.055

Question: With TAAAGTTAGC as the sequence, how does the switch fluorescence ratio read?
Answer: 0.995 ± 0.028

Question: Which switch fluorescence ratio does the source give for TTGGGCAGTA here?
Answer: 0.978 ± 0.057

Question: With ATTATCACGA as the sequence, how does the switch fluorescence ratio read?
Answer: 0.989 ± 0.014
